Experimental data: patent publication US20150344570A1 (published 2015)

B1: GpH7-A5/GpH7-B3 variant E333_09D/GpL16-k0 (antibody, human IgG1, kappa)
heavy 1: not shown
heavy 2: not shown
light: DIVMTQSPLSLPVTPGEPASISCQASESLVHSNRNTYLHWYLQKPGQSPQLLIYKVSNRFSGVPDRFSGSGSGTDFTLKISRVEAEDVGVYYCSQNTHVPPTFGQGTKVEIERTVAAPSVFIFPPSDEQLKSGTASVVCLLNNFYPREAKVQWKVDNALQSGNSQESVTEQDSKDSTYSLSSTLTLSKADYEKHKVYACEVTHQGLSSPVTKSFNRGEC
notes: also called He Ab E333_09D
B2: GpH7-A5/GpH7-B3 variant E333_11K/GpL16-k0 (antibody, human IgG1, kappa)
heavy 1: not shown
heavy 2: not shown
light: DIVMTQSPLSLPVTPGEPASISCQASESLVHSNRNTYLHWYLQKPGQSPQLLIYKVSNRFSGVPDRFSGSGSGTDFTLKISRVEAEDVGVYYCSQNTHVPPTFGQGTKVEIERTVAAPSVFIFPPSDEQLKSGTASVVCLLNNFYPREAKVQWKVDNALQSGNSQESVTEQDSKDSTYSLSSTLTLSKADYEKHKVYACEVTHQGLSSPVTKSFNRGEC
notes: also called He Ab E333_11K
B3: GpH7-A5/GpH7-B3 variant E333_12R/GpL16-k0 (antibody, human IgG1, kappa)
heavy 1: not shown
heavy 2: not shown
light: DIVMTQSPLSLPVTPGEPASISCQASESLVHSNRNTYLHWYLQKPGQSPQLLIYKVSNRFSGVPDRFSGSGSGTDFTLKISRVEAEDVGVYYCSQNTHVPPTFGQGTKVEIERTVAAPSVFIFPPSDEQLKSGTASVVCLLNNFYPREAKVQWKVDNALQSGNSQESVTEQDSKDSTYSLSSTLTLSKADYEKHKVYACEVTHQGLSSPVTKSFNRGEC
notes: also called He Ab E333_12R
B4: GpH7-A5/GpH7-B3 variant E333_13S/GpL16-k0 (antibody, human IgG1, kappa)
heavy 1: not shown
heavy 2: not shown
light: DIVMTQSPLSLPVTPGEPASISCQASESLVHSNRNTYLHWYLQKPGQSPQLLIYKVSNRFSGVPDRFSGSGSGTDFTLKISRVEAEDVGVYYCSQNTHVPPTFGQGTKVEIERTVAAPSVFIFPPSDEQLKSGTASVVCLLNNFYPREAKVQWKVDNALQSGNSQESVTEQDSKDSTYSLSSTLTLSKADYEKHKVYACEVTHQGLSSPVTKSFNRGEC
notes: also called He Ab E333_13S
B5: GpH7-A5/GpH7-B3 variant E333_14T/GpL16-k0 (antibody, human IgG1, kappa)
heavy 1: not shown
heavy 2: not shown
light: DIVMTQSPLSLPVTPGEPASISCQASESLVHSNRNTYLHWYLQKPGQSPQLLIYKVSNRFSGVPDRFSGSGSGTDFTLKISRVEAEDVGVYYCSQNTHVPPTFGQGTKVEIERTVAAPSVFIFPPSDEQLKSGTASVVCLLNNFYPREAKVQWKVDNALQSGNSQESVTEQDSKDSTYSLSSTLTLSKADYEKHKVYACEVTHQGLSSPVTKSFNRGEC
notes: also called He Ab E333_14T
B6: GpH7-A5/GpH7-B3 variant E333_15Y/GpL16-k0 (antibody, human IgG1, kappa)
heavy 1: not shown
heavy 2: not shown
light: DIVMTQSPLSLPVTPGEPASISCQASESLVHSNRNTYLHWYLQKPGQSPQLLIYKVSNRFSGVPDRFSGSGSGTDFTLKISRVEAEDVGVYYCSQNTHVPPTFGQGTKVEIERTVAAPSVFIFPPSDEQLKSGTASVVCLLNNFYPREAKVQWKVDNALQSGNSQESVTEQDSKDSTYSLSSTLTLSKADYEKHKVYACEVTHQGLSSPVTKSFNRGEC
notes: also called He Ab E333_15Y
B7: GpH7-A5/GpH7-B3 variant E333_16H/GpL16-k0 (antibody, human IgG1, kappa)
heavy 1: not shown
heavy 2: not shown
light: DIVMTQSPLSLPVTPGEPASISCQASESLVHSNRNTYLHWYLQKPGQSPQLLIYKVSNRFSGVPDRFSGSGSGTDFTLKISRVEAEDVGVYYCSQNTHVPPTFGQGTKVEIERTVAAPSVFIFPPSDEQLKSGTASVVCLLNNFYPREAKVQWKVDNALQSGNSQESVTEQDSKDSTYSLSSTLTLSKADYEKHKVYACEVTHQGLSSPVTKSFNRGEC
notes: also called He Ab E333_16H
B8: GpH7-A5/GpH7-B3 variant G236_02A/GpL16-k0 (antibody, human IgG1, kappa)
heavy 1: not shown
heavy 2: not shown
light: DIVMTQSPLSLPVTPGEPASISCQASESLVHSNRNTYLHWYLQKPGQSPQLLIYKVSNRFSGVPDRFSGSGSGTDFTLKISRVEAEDVGVYYCSQNTHVPPTFGQGTKVEIERTVAAPSVFIFPPSDEQLKSGTASVVCLLNNFYPREAKVQWKVDNALQSGNSQESVTEQDSKDSTYSLSSTLTLSKADYEKHKVYACEVTHQGLSSPVTKSFNRGEC
notes: also called He Ab G236_02A
B9: GpH7-A5/GpH7-B3 variant G236_20W/GpL16-k0 (antibody, human IgG1, kappa)
heavy 1: not shown
heavy 2: not shown
light: DIVMTQSPLSLPVTPGEPASISCQASESLVHSNRNTYLHWYLQKPGQSPQLLIYKVSNRFSGVPDRFSGSGSGTDFTLKISRVEAEDVGVYYCSQNTHVPPTFGQGTKVEIERTVAAPSVFIFPPSDEQLKSGTASVVCLLNNFYPREAKVQWKVDNALQSGNSQESVTEQDSKDSTYSLSSTLTLSKADYEKHKVYACEVTHQGLSSPVTKSFNRGEC
notes: also called He Ab G236_20W

target: T1, FcγRIa (human, UniProt P12314 16-292); test: SPR (Biacore); He Ab relative to HeCon Ab = 100
T1 construct: extracellular domain; also called FcgRI; 1a
Summary of the method: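 Antibodies were captured on antigen-peptide chips (amine-coupled to CM5, or biotinylated peptide on SA), then FcγR diluted in HBS-EP+ running buffer was injected as analyte at 25° C. Chips were regenerated with 10 mM glycine-HCl, pH 1.5 between cycles.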

T1 sequence (P12314 16-292): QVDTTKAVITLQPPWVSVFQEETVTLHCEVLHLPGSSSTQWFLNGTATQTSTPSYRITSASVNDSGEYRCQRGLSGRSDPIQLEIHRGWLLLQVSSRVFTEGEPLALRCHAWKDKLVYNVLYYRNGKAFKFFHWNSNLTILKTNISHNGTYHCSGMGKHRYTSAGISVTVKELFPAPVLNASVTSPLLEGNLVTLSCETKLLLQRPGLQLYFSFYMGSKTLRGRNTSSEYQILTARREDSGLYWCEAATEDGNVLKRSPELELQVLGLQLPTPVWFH

Question: B1 was tested. Which He/Con_1a did it give?
Answer: Its He/Con_1a is 104 % of control.

Question: With B2 as the binder, how does the He/Con_1a read?
Answer: Its He/Con_1a is 102 % of control.

Question: With B3 as the binder, how does the He/Con_1a read?
Answer: The He/Con_1a was 102 % of control.

Question: With B4 as the binder, how does the He/Con_1a read?
Answer: The He/Con_1a was 103 % of control.

Question: B5 was tested. Which He/Con_1a did it give?
Answer: Its He/Con_1a is 102 % of control.

Question: B6 was tested. Which He/Con_1a did it give?
Answer: Its He/Con_1a is 101 % of control.

Question: B7 was tested. Which He/Con_1a did it give?
Answer: The He/Con_1a was 101 % of control.

Question: B8 was tested. Which He/Con_1a did it give?
Answer: Its He/Con_1a is 100 % of control.

Question: B9 was tested. Which He/Con_1a did it give?
Answer: The He/Con_1a was 105 % of control.
